Laboratory results reported in patent US20200299408A1 (Genentech, published 2020).
Positions count from the first letter of the chain named. Names may count otherwise. “And” between values parts separate entries of the source, which are not always exact repeats. Equal values may be shown once.

T1: single chain human CD3ε-26mer-CD3γ (CD3εγ) (human)
T1 construct: also called human CD3εγ
T1 chain: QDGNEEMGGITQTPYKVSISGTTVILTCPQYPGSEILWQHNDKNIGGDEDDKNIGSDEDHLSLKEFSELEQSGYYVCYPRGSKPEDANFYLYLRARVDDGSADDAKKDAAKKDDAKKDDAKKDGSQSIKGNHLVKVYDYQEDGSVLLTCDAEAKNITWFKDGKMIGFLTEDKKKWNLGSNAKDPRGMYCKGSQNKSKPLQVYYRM

B1: 40G5c CHO (bispecific antibody, V domains shown)
VH 1: EVQLVESGGGLVQPGGSLRLSCAASGYTFTSYNMHWVRQAPGKGLEWVGAIYPGNGDTSYNQKFKGRFTISVDKSKNTLYLQMNSLRAEDTAVYYCARVVYYSNSYWYFDVWGQGTLVTVSS
VL 1: DIQMTQSPSSLSASVGDRVTITCRASSSVSYMHWYQQKPGKAPKPLIYAPSNLASGVPSRFSGSGSGTDFTLTISSLQPEDFATYYCQQWSFNPPTFGQGTKVEIK
VH 2: EVQLVQSGAEVKKPGASVKVSCKASGYTFTNYYIHWVRQAPGQGLEWIGWIYPGDGNTKYNEKFKGRATLTADTSTSTAYLELSSLRSEDTAVYYCARDSYSNYYFDYWGQGTLVTVSS
VL 2: DIVMTQSPDSLAVSLGERATINCKSSQSLLNSRTRKNYLAWYQQKPGQPPKLLIYWASTRESGVPDRFSGSGSGTDFTLTISSLQAEDVAVYYCTQSFILRTFGQGTKVEIK
modifications: CHO-produced full-length knob-into-hole IgG with N297G in the Fc; constant regions are not in the letters.
notes: CHO material; also called CD3/CD20 TDB 2H7v16/40G5c produced in CHO, N297G
B2: 38E4v9 CHO (bispecific antibody)
anti-CD20 arm heavy chain: B1 VH 1
anti-CD20 arm light chain: B1 VL 1
anti-CD3 arm heavy chain: EVQLVQSGAEVKKPGASVKVSCKASGFTFTSYYIHWVRQAPGQGLEWIGWIYPENDNTKYNEKFKDRVTITADTSTSTAYLELSSLRSEDTAVYYCARDGYSRAYFDYWGQGTLVTVSS
anti-CD3 arm light chain: B1 VL 2 with P49S, A57T, E61K, T95K
notes: also called CD3/CD20 TDB 2H7v16/38E4v9
B3: 38E4v6 CHO (bispecific antibody)
anti-CD20 arm heavy chain: B1 VH 1
anti-CD20 arm light chain: B1 VL 1
anti-CD3 arm heavy chain: B2 anti-CD3 arm heavy chain with D99T, A104Y
anti-CD3 arm light chain: B1 VL 2 with P49S, A57T, E61K, T95K
notes: also called CD3/CD20 TDB 2H7v16/38E4v6
B4: 38E4v5 CHO (bispecific antibody)
anti-CD20 arm heavy chain: B1 VH 1
anti-CD20 arm light chain: B1 VL 1
anti-CD3 arm heavy chain: B2 anti-CD3 arm heavy chain with A104Y
anti-CD3 arm light chain: B1 VL 2 with P49S, A57T, E61K, T95K, F98A
notes: also called CD3/CD20 TDB 2H7v16/38E4v5
B5: 38E4v7 CHO (bispecific antibody)
anti-CD20 arm heavy chain: B1 VH 1
anti-CD20 arm light chain: B1 VL 1
anti-CD3 arm heavy chain: B2 anti-CD3 arm heavy chain with A104Y, Y105A
anti-CD3 arm light chain: B1 VL 2 with P49S, A57T, E61K, T95K
notes: also called CD3/CD20 TDB 2H7v16/38E4v7
B6: 38E4v4 CHO (bispecific antibody)
anti-CD20 arm heavy chain: B1 VH 1
anti-CD20 arm light chain: B1 VL 1
anti-CD3 arm heavy chain: B2 anti-CD3 arm heavy chain with A104Y
anti-CD3 arm light chain: B1 VL 2 with P49S, A57T, E61K, T95K, Q96A
notes: also called CD3/CD20 TDB 2H7v16/38E4v4
B7: 38E4v8 CHO (bispecific antibody)
anti-CD20 arm heavy chain: B1 VH 1
anti-CD20 arm light chain: B1 VL 1
anti-CD3 arm heavy chain: B2 anti-CD3 arm heavy chain with D99S, A104Y
anti-CD3 arm light chain: B1 VL 2 with P49S, A57T, E61K, T95K
notes: also called CD3/CD20 TDB 2H7v16/38E4v8
B8: 38E4v2 CHO (bispecific antibody)
anti-CD20 arm heavy chain: B1 VH 1
anti-CD20 arm light chain: B1 VL 1
anti-CD3 arm heavy chain: B2 anti-CD3 arm heavy chain with G100A, A104Y
anti-CD3 arm light chain: B1 VL 2 with P49S, A57T, E61K, T95K
notes: also called CD3/CD20 TDB 2H7v16/38E4v2
B9: 38E4v3 CHO (bispecific antibody)
anti-CD20 arm heavy chain: B1 VH 1
anti-CD20 arm light chain: B1 VL 1
anti-CD3 arm heavy chain: B2 anti-CD3 arm heavy chain with A104Y
anti-CD3 arm light chain: B1 VL 2 with P49S, A57T, E61K, T95K, I99A
notes: also called CD3/CD20 TDB 2H7v16/38E4v3
B10: 79B7 (antibody, IgG3, V domains shown)
VH: QVQLQQSGSELVRPGASLKLSCKASGYTFTSYWMHWVRQRPGQGLEWIGNSYPGDLNVNYDEKFKNKVTLAVDTSSSTAFLQLSSLTSEDSAVYYCTRDAYSRYFFDYWGQGTTLTVSS
VL: DIVMTQSPSSLAVSAGEKVTMSCKSSQSLLNSRTRKNYLAWYQQKPGQSPKLLIYWASTRESGVPDRFTGSGSGTDFTLTISSVQTEDLAVYYCCQSFILRTFGGGTKLEIK
notes: mouse hybridoma clone
B11: 118G9 (antibody, IgG3, V domains shown)
VH: QVQLQQPGSELVRPGASVTLSCTASGYSFTSYWMHWVKQRPGQGLEWVGNIYPGGEIINYAEKFKTKGTLTVDISSSTAYMHLSSLTSDDSAVYYCTRDTTGNYFFDYWGQGTTLTVSS
VL: B10 VL with Q48L, D66E, C95T, K108R
notes: mouse hybridoma clone
B12: 95A2 (antibody, IgG3, V domains shown)
VH: QVQLQQSGPEMVKPGASVTISCKTSGFTFTSYYIHWMMQRPGQGLEWIGWLYPGDVSTRYNEKFRDKATLTADKSSTTAYLYLSSLTSEDSAVYFCARDSSASYYFDFWGQGTTLTVSS
VL: B10 VL with K18M, M21L, S22H, S32I, Q43L, K51R, E61A, T86P, C95T, I111L
notes: mouse hybridoma clone
B13: 39B7 (antibody, IgG2b, V domains shown)
VH: QVQLQQSGPELVKPGTSVKISCKTSGYNFINYYTHWVKQRPGQGLEWIGWIYPGNGNIKYNEKFMGKATLTADTSSTTAHMHLSSLVSEDSAVYYCARDSYGSYYFDYWGQGTTLTVSS
VL: B10 VL with S22T, T86A, C95K
notes: mouse hybridoma clone
B14: 40D2 (antibody, IgG2b, V domains shown)
VH: QVQLQQSGPELVKPGASLKISCKASGYSFANYYTHWVRQRPGQGLEWIGWLYPGNGDTRYNEKFKDKATLTADTSSNTASMQLNSLTSEDSAVYYCTRDSYGNYFFDYWGQGTTLIVSS
VL: B10 VL with Y55F, T86A, C95K, I111L
notes: mouse hybridoma clone
B15: 40G5 (antibody, V domains shown)
VH: QVQLQQSGPELVKPGTSVKMSCKASGYTFTNYYIHWVRQRPGQGLEWIGWIYPGDVSTKYNEKFKGKTTLTADKSSSTAYMLLSGLTSEDSAIYFCARDGYSFYYFDYWGQGTTLTVSS
VL: B10 VL with M4L, A40T, E61D, T69S, T86A, C95T, F98Y, I99T
notes: mouse hybridoma clone; not the consensus 40G5c; also called mu40G5
B16: Rab17 (antibody, rabbit IgG1, V domains shown)
VH: QSVKESEGGLFKPTDTLTLTCTVSGCSLSSCAISWVRQAPGKGLEWIGFMSVTGSAYYANWAKSRSTITRNTNENTVTLKMTRLTAADTAIYFCARVGIGSGLNIWG
VL: DMTQTPSSKSVPVGDTVTINCQASETVYSNNYLAWFQQKPGQPPKRLIYGVSTLDSGVPPRFSGSGSGTQFTLTISDVVCDDAATYYCAGYKTSSSYAIAFGGGTELEIL
notes: clone from the rabbit immunization
B17: hu38E4.v1 H3 mutant F100bA (Fab, V domains shown)
VH: B2 anti-CD3 arm heavy chain with A104Y, F106A
VL: B1 VL 2 with P49S, A57T, E61K, T95K
notes: copies: 1 + 1
B18: hu38E4.v1 H3 mutant Y97A (Fab, V domains shown)
VH: B2 anti-CD3 arm heavy chain with Y101A, A104Y
VL: B1 VL 2 with P49S, A57T, E61K, T95K
notes: copies: 1 + 1
B19: hu38E4.v1 H3 mutant R99A (Fab, V domains shown)
VH: B2 anti-CD3 arm heavy chain with R103A, A104Y
VL: B1 VL 2 with P49S, A57T, E61K, T95K
notes: copies: 1 + 1

Target: T1, single chain human CD3ε-26mer-CD3γ …
Experiment: Biacore, human CD3εγ on chip, TDB in flow through
Experimental: (§1) Binding affinities for the each of the CD3/CD20 TDBs were tested by Biacore or FACS analysis, as described above for the anti-CD3 antibodies. Briefly, for Biacore binding assays, human CD3εγ was immobilized on Biacore Series S CM5 sensor chip using the amine coupling kit from Biacore and CD3/CD20 TDBs or Fab variants thereof were in the flow through. For FACS binding assays, either Bjab cells (for B cell antigens) or Jurkat cells (for CD3 antigen) were incubated with various concentrations of TDB antibodies at 4° C. for 30 minutes, then cells were washed and incubated with 2nd antibody (anti-huIgG-PE; BD Bioscience) for another 15 minutes, before cells were washed again and ready for FACS analysis.

| Binder | Kd | koff | kon |
| --- | --- | --- | --- |
| B1 | 51.5 nM | 0.0307 s⁻¹ | 597000 M⁻¹ s⁻¹ |
| B2 | 64200 nM | 1.02 s⁻¹ | 15900 M⁻¹ s⁻¹ |
| B3 | 37600 nM | 0.878 s⁻¹ | 23400 M⁻¹ s⁻¹ |
| B4 | 16 nM | 0.0515 s⁻¹ | 3.22e+06 M⁻¹ s⁻¹ |
| B5 | 254 nM | 0.29 s⁻¹ | 1.14e+06 M⁻¹ s⁻¹ |
| B6 | 137 nM and 136 nM | 0.0984 s⁻¹ | 721000 M⁻¹ s⁻¹ |
| B7 | 3930 nM | 0.0443 s⁻¹ | 11300 M⁻¹ s⁻¹ |
| B8 | 2.43 nM and 2.4 nM | 0.00513 s⁻¹ | 2.11e+06 M⁻¹ s⁻¹ |
| B9 | 3.21 nM and 3.2 nM | 0.016 s⁻¹ | 4.98e+06 M⁻¹ s⁻¹ |

Target: CD3 antigen of Figures 3B and 3C (not named)
Experiment: kinetic table of IgGs; method and antigen not stated

| Binder | Kd | koff | kon |
| --- | --- | --- | --- |
| B10 | 0.224 nM | 3.41e-05 s⁻¹ | 152000 M⁻¹ s⁻¹ |
| B11 | 0.209 nM | 3.74e-05 s⁻¹ | 179000 M⁻¹ s⁻¹ |
| B12 | 0.0644 nM | 1.87e-05 s⁻¹ | 290000 M⁻¹ s⁻¹ |
| B13 | 0.331 nM | 7.31e-05 s⁻¹ | 220000 M⁻¹ s⁻¹ |
| B14 | 0.563 nM | 0.000111 s⁻¹ | 197000 M⁻¹ s⁻¹ |
| B15 | 0.159 nM | 2.48e-05 s⁻¹ | 156000 M⁻¹ s⁻¹ |

Target: CD3 antigen of Figures 3B and 3C (not named)
Experiment: as above
Remark: another data set of the same source

| Binder | Kd | koff | kon |
| --- | --- | --- | --- |
| B15 | 0.86 nM | 2.69e-05 s⁻¹ | 31100 M⁻¹ s⁻¹ |
| B16 | 8.46 nM | 0.000242 s⁻¹ | 28600 M⁻¹ s⁻¹ |

Target: T2, human CD3 on T cells (human, UniProt P07766 22-207)
T2 construct: whole, on cells; On cells CD3ε stands in the CD3/TCR complex; also called CD3 antigen; CD3ε
Experiment: FACS on Jurkat cells (CD3); EC50 table for the curves of FIGS. 21A-21B; source CHO (N297G)
Experimental: as §1

| Binder | EC50 |
| --- | --- |
| B1 | 2.01 µg/mL and ~13 nM |
| B2 | 15 µg/mL and ~97 nM |
| B3 | 5.56 µg/mL and ~36 nM |
| B4 | 4.11 µg/mL and ~27 nM |
| B5 | 22.6 µg/mL and ~147 nM |
| B6 | 3.51 µg/mL and ~23 nM |
| B7 | 7.23 µg/mL and ~47 nM |
| B8 | 0.52 µg/mL and ~3.4 nM |
| B9 | 0.29 µg/mL and ~1.9 nM |

Target: T1, single chain human CD3ε-26mer-CD3γ …
Experiment: Biacore single cycle kinetics: Fab captured by anti-human Fab, human CD3εγ injected (3-250 nM)
Excerpt: In addition, position 95 in HVR-H3 was also mutated to serine, threonine, or glutamate. Variants with these single point mutations were expressed as Fabs in HEK293 cells and initially screened with a single cycle kinetics method on a Biacore T100. Selected variants were also scaled up and purified for a conventional multi-cycle kinetics method. For single cycle kinetics, Biacore Series S CM5 sensor chips were immobilized with anti-human Fab antibodies (Human Fab capture kit, GE Healthcare). […] For conventional multi-cycle kinetics, human CD3εγ, cyno CD3εγ, or a 27-mer peptide were immobilized on Biacore Series S CM5 sensor chip using the amine coupling kit from Biacore. Serial 3-fold dilutions of each Fab variant were injected at a flow rate of 30 μl/min. Each sample was analyzed with a protocol of 3-minute association and 3-minute dissociation. In both methods, the Biacore chips were regenerated using 10 mM Glycine (pH 1.7). Binding response was corrected by blank subtraction and a 1:1Languir model of simultaneous fitting of kₒₙ and koff was used for kinetics analysis.

| Binder | binding result |
| --- | --- |
| B17 | no binding (tested: 250 nM CD3εγ (p-1386; not on the sheet)) |
| B18 | no binding (tested: 250 nM CD3εγ (p-1386; not on the sheet)) |
| B19 | no binding (tested: 250 nM CD3εγ (p-1386; not on the sheet)) |
